In the data set the target is Fis (UniProt A0A0H2ZIA5 1-107). The experiment in a line: EMSA. The conditions noted are these: protein: recombinant; chain copies: 2; label: none (ethidium bromide stain).

B1: exsA promoter -10 box probe (original Fis site, exsB-exsA intergenic) (dsDNA)
DNA 1: TAATCCTGATTATTATAAAATCGACTCCGTG
DNA 2: CACGGAGTCGATTTTATAATAATCAGGATTA
Consider B1, for which the binding result was “binds”.
